These are literature values, as cited in paper PMC10404613.

In general, Kd refers to the equilibrium constant for the complex coming apart.

This data set deals with UBC9 (Homo sapiens) (UniProt P63279).
UniProt P63279, sequence (P63279 2-158): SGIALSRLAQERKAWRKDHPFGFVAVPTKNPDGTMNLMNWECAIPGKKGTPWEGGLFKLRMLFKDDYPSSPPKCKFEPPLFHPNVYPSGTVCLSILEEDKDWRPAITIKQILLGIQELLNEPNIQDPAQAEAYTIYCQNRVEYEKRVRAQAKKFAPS

Consider SUMO1 (from UniProt P63165), for which the Kd is 100 nM.
